Measurements from publication PMC10557571 (bioRxiv, 2023).

B1: Unprocessed Activin E precursor from Construct I (natural protein, human, UniProt P58166 20-350, looked up)
chain: QGTGSVCPSCGGSKLAPQAERALVLELAKQQILDGLHLTSRPRITHPPPQAALTRALRRLQPGSVAPGNGEEVISFATVTDSTSAYSSLLTFHLSTPRSHHLYHARLWLHVLPTLPGTLCLRIFRWGPRRRRQGSRTLLAEHHITNLGWHTLTLPSSGLRGEKSGVLKLQLDCRPLEGNSTVTGQPRRLLDTAGHQQPFLELKIRANEPGAGRRRRRTPTCEPATPLCCRRDHYVDFQELGWRDWILQPEGYQLNYCSGQCPPHLAGSPGIAASFHSAVFSLLKANNPWPASTSCCVPTARRPLSLLYLDHNGNVVKTDVPDMVVEACGCS
B2: Flag-tagged mature Activin E from Construct II (ligand, human, UniProt P58166 237-350, looked up)
chain: TPTCEPATPLCCRRDHYVDFQELGWRDWILQPEGYQLNYCSGQCPPHLAGSPGIAASFHSAVFSLLKANNPWPASTSCCVPTARRPLSLLYLDHNGNVVKTDVPDMVVEACGCS

Target: the molecule itself
Test: SDS-PAGE under non-reducing and reducing conditions with anti-Flag western blot

Protein	stoichiometry N
B1	2
B2	2
